Consider ten molecules from US20160304570A1.

Non-standard residues stand in square brackets, D forms with d. No end group written: not given here. 4‑Pen = not defined here; Pra = C#CC[C@H](N)C(=O)O; Abu = CC[C@H](N)C(=O)O

Test in all cases: cell-based or functional assay
Test [1] concerns the target human voltage-gated sodium channel Nav1.4 (human) (UniProt P35499).
Test [2] has as its target human voltage-gated sodium channel Nav1.5 (human) (UniProt Q14524).
The target of test [3] is human voltage-gated sodium channel Nav1.7 (human) (UniProt Q15858).
The target in test [4] is human Nav1.7 voltage-gated sodium channel (human) (UniProt Q15858).
The target of test [5] is human Nav1.5 voltage-gated sodium channel (human) (UniProt Q14524).
Sequence of human Nav1.5 voltage-gated sodium channel (human) (Q14524 whole entry): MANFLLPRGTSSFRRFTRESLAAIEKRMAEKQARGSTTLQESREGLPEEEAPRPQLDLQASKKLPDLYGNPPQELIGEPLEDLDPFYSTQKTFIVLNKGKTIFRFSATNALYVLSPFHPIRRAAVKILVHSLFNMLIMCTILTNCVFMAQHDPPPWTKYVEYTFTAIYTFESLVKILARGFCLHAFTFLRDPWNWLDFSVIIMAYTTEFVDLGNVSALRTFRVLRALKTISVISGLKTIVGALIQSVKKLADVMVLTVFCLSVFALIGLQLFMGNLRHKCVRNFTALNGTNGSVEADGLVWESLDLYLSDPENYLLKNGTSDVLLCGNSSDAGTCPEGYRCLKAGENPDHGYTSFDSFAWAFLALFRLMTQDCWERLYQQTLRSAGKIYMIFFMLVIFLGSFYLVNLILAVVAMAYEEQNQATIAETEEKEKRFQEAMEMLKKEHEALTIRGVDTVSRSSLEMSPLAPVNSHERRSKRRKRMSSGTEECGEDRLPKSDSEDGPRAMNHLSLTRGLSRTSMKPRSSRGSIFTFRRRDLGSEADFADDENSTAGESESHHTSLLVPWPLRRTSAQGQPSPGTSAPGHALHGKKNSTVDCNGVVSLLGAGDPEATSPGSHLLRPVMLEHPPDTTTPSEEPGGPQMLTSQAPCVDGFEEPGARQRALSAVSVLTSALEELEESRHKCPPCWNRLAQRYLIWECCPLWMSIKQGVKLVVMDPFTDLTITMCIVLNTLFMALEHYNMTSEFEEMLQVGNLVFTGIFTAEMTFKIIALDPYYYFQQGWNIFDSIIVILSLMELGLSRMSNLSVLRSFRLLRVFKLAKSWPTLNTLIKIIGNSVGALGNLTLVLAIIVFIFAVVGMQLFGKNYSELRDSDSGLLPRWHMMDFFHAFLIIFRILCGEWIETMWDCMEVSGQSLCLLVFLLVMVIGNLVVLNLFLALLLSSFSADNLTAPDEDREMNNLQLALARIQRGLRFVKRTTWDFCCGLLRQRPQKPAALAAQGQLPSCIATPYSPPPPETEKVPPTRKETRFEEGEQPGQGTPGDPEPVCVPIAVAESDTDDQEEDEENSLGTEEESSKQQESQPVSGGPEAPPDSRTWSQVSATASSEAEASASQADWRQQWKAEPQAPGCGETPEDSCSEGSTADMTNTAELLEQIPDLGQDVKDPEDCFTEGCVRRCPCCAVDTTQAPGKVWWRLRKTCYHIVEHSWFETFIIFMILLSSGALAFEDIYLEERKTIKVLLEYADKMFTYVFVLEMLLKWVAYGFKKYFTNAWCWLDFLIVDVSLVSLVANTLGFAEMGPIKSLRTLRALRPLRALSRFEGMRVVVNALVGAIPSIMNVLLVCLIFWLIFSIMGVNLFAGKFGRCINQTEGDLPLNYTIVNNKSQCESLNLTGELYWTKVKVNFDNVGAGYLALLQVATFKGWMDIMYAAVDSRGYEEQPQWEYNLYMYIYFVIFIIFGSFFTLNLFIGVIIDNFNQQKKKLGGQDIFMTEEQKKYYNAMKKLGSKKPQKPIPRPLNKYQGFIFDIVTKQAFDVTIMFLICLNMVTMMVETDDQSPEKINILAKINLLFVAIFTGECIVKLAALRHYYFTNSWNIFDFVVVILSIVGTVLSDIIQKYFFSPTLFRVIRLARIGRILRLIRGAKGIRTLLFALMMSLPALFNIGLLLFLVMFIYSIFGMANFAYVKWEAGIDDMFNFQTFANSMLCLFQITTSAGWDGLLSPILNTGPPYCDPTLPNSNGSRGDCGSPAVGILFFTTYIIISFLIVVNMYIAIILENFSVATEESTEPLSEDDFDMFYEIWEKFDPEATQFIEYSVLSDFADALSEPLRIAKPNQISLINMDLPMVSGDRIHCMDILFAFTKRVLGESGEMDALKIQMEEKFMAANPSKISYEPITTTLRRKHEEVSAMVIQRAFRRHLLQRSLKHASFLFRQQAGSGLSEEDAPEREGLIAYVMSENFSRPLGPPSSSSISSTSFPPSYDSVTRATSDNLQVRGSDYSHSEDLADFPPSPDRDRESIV
In test [6] the target is human Nav1.4 voltage-gated sodium channel (human) (UniProt P35499).
The target in test [7] is human Nav1.3 voltage-gated sodium channel (human) (UniProt Q9NY46).
In test [8] the target is human voltage-gated sodium channel Nav1.4 (human) (UniProt P35499). This is another data set of the same source.
Test [9] concerns the target human voltage-gated sodium channel Nav1.5 (human) (UniProt Q14524). This is another data set of the same source.
Test [10] addresses human voltage-gated sodium channel Nav1.7 (human) (UniProt Q15858). This is another data set of the same source.
For test [11], the target named is human voltage-gated sodium channel Nav1.3 (human) (UniProt Q9NY46).

Sequence of human voltage-gated sodium channel Nav1.5 (human) (Q14524 whole entry): as above

As to “((2-Hydroxyethyl)thio)acetamide-NPEG11-triazole-[2-Abu5,13;Leu6;Arg28]GpTx-1(1-34) (peptide)”, the Nav1.4 Use IC50 (PatchXpress electrophysiology, inhibition of sodium current) in [1] was above 10 µM. This molecule had a Nav1.5 Use IC50 (PatchXpress electrophysiology, inhibition of sodium current) in [2] above 10 µM. In test [3], this molecule came in with a Nav1.7 Use IC50 (PatchXpress electrophysiology, inhibition of sodium current) of 0.087 µM.
“Biotin-Ahx-[2-Abu5,13;Leu6;Arg28]GpTx-1(1-34) (peptide)” came in with a Nav1.4 Use IC50 (µM), PatchXpress electrophysiology in test [1] of 27.3 µM. Moreover, the Nav1.5 Use IC50 (µM), PatchXpress electrophysiology in test [2] was above 10 µM. In test [3], this molecule showed a Nav1.7 Use IC50 (µM), PatchXpress electrophysiology of 0.011 µM.
Consider “[2-Abu5,Leu6,K(ethyl-triazole-PEG11-((2-hydroxyethyl)thio)acetamide)13,Arg28]GpTx-1(1-34) (peptide)”, for which the Nav1.4 Use IC50 (PatchXpress electrophysiology, inhibition of sodium current) in [1] is 9.88 µM. For the same molecule, in [2], the Nav1.5 Use IC50 (PatchXpress electrophysiology, inhibition of sodium current) was above 10 µM. Moreover, the Nav1.7 Use IC50 (PatchXpress electrophysiology, inhibition of sodium current) in [3] was 0.018 µM.
“[Ala5;Phe6;Glu10;Atz(PEG3-((2-hydroxyethyl)thio)acetamide)13;Leu26;Arg28]GpTx-1(1-34) (peptide)” showed a Nav1.4 Use IC50 (PatchXpress electrophysiology, inhibition of sodium current) in test [1] of 5.95 µM. Further, the Nav1.5 Use IC50 (PatchXpress electrophysiology, inhibition of sodium current) in [2] was above 10 µM. The molecule also gave a Nav1.7 Use IC50 (PatchXpress electrophysiology, inhibition of sodium current) in test [3] of 0.013 µM.
The corresponding values for “[Ala5;Phe6;Glu10;Atz(PEG11-((2-hydroxyethyl)thio)acetamide)13;Leu26;Arg28]GpTx-1(1-34) (peptide)” are above 10 µM, above 10 µM and 0.021 µM.
Molecule “[Ala5;Phe6;Glu10;K(Biotin)13;Leu26;Arg28]GpTx-1(1-34) (peptide)” yielded a Nav1.4 Use IC50 (µM), PatchXpress electrophysiology in test [1] of 7.13 µM. This molecule also gave a Nav1.5 Use IC50 (µM), PatchXpress electrophysiology in [2] above 10 µM. In test [3], this molecule had a Nav1.7 Use IC50 (µM), PatchXpress electrophysiology of 0.015 µM.
With “[Ala5;Phe6;K(Ac-Pra)13;Arg28]GpTx-1(1-34) (peptide)”, in test [4], the IWQ Use Nav1.7 IC50 (IonWorks Quattro electrophysiology) is 0.78 µM. Besides, the IWQ Use Nav1.5 IC50 (IonWorks Quattro electrophysiology) in test [5] came to 24.6 µM. Moreover, the IWQ Use Nav1.4 IC50 (IonWorks Quattro electrophysiology) in test [6] amounted to 18 µM. This molecule registered an IWQ Use Nav1.3 IC50 (IonWorks Quattro electrophysiology) in test [7] of 0.25 µM.
In [8], DCLGALRKCEPD[Pra]DKCCRPNLVCSRLHRWCKYVF (ends and bridges not checked) [[Ala5;Leu6,26;Glu10;Pra13;Arg28]GpTx-1(1-34)] returned a Nav1.4 Use IC50 (µM), electrophysiology by PatchXpress above 10 µM. This molecule gave an IWQ Use Nav1.7 IC50 (IonWorks Quattro electrophysiology) in test [4] of 0.7 µM. In test [5], this molecule registered an IWQ Use Nav1.5 IC50 (IonWorks Quattro electrophysiology) above 50 µM. The Nav1.5 Use IC50 (µM), electrophysiology by PatchXpress in test [9] is above 10 µM. Moreover, in test [10], the Nav1.7 Use IC50 (µM), electrophysiology by PatchXpress came to 0.013 µM. Also, in test [6], the IWQ Use Nav1.4 IC50 (IonWorks Quattro electrophysiology) is above 50 µM. The molecule also displayed an IWQ Use Nav1.3 IC50 (IonWorks Quattro electrophysiology) in [7] of 1.4 µM.
Molecule DCLGALRKCIPDHDKCCRPNLVCSRTHRWCKYVF-OH (ends and bridges not checked) [[Ala5;Leu6;His13;Arg28]GpTx-1(1-34)-FreeAcid] showed an IWQ Use Nav1.4 in test [8] above 5 µM. For the same molecule, the IWQ Use Nav1.3 in test [11] was 3.9 µM. The same molecule came in with an IWQ Use Nav1.5 in [9] above 5 µM. Besides, in test [10], the IWQ Use Nav1.7 is above 5 µM.
Molecule DCLG[Abu]LRKCIPDK(4‑Pen)DKCCRPNLVCSRTHEWCKYVF (ends and bridges not checked) [[2-Abu5;Leu6;K(4-Pen)13;Glu28]GpTx-1(1-34)] gave an IWQ Use Nav1.7 IC50 (IonWorks Quattro electrophysiology) in [4] of 1.8 µM. Moreover, the IWQ Use Nav1.5 IC50 (IonWorks Quattro electrophysiology) in [5] is above 5 µM. This molecule came in with an IWQ Use Nav1.4 IC50 (IonWorks Quattro electrophysiology) in [6] above 5 µM. For the same molecule, the IWQ Use Nav1.3 IC50 (IonWorks Quattro electrophysiology) in test [7] stood at 4.1 µM.
